Experimental data as given in patent US20180289766A1 (HONG KONG BAPTIST UNIVERSITY, published 2018).
Positions of bridges follow the written chain, without caps; N, C: chain ends. No end group written: not given here.

Tests used:
Assay in all cases: cell-based or functional assay
[1] = molecular target: T1, human galanin receptor 3 (hGalR3) (human, UniProt O60755 1-368)
T1 sequence (looked up): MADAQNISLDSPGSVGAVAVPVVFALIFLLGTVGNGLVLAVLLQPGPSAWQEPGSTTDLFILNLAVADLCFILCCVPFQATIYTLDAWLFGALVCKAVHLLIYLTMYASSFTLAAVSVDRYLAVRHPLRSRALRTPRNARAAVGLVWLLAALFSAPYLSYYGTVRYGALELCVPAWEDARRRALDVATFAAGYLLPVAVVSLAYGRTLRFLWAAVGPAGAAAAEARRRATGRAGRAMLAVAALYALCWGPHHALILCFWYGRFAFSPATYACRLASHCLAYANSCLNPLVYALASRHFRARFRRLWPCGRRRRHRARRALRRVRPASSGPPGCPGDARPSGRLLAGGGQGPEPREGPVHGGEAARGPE

[2] = molecular target: T2, human galanin receptor 2 (hGalR2) (human, UniProt O43603 1-387)
T2 sequence (looked up): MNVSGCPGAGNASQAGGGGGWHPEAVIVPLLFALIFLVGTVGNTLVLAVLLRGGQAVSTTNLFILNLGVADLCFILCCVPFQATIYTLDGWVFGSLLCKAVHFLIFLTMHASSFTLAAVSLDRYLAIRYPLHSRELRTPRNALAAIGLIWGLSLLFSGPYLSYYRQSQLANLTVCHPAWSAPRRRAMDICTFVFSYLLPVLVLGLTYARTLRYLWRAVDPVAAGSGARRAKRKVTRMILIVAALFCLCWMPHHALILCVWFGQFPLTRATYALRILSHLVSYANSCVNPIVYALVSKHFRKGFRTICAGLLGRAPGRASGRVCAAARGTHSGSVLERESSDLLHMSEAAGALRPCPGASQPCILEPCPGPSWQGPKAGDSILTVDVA

[3] = molecular target: T3, human galanin receptor 1 (hGalR1) (human, UniProt P47211 1-349)
T3 sequence (looked up): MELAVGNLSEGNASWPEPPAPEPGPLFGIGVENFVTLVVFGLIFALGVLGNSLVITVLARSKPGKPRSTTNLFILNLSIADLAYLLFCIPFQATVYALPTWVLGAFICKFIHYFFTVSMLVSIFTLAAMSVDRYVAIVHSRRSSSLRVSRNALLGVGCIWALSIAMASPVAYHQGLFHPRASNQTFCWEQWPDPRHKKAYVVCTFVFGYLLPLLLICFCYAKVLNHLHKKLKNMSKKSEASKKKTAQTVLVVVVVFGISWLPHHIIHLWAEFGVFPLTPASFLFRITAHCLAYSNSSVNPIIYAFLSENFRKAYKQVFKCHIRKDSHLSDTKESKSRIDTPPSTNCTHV

B1: hSPX (C1) (peptide)
peptide: CWTPQAMLYLKGAQ-NH2
EC50, receptor activation (SRE-Luc assay) [1]: 0.36 µM | Emax, receptor activation (SRE-Luc assay) [1]: 1 relative to hSPX Emax | EC50, receptor activation (SRE-Luc assay) [2]: 0.51 µM | Emax, receptor activation (SRE-Luc assay) [2]: 1.05 relative to hSPX Emax

B2: hSPX (C4) (peptide)
peptide: NWTCQAMLYLKGAQ-NH2
EC50, receptor activation (SRE-Luc assay) [1]: 0.77 µM | Emax, receptor activation (SRE-Luc assay) [1]: 0.91 relative to hSPX Emax | EC50, receptor activation (SRE-Luc assay) [2]: 0.47 µM | Emax, receptor activation (SRE-Luc assay) [2]: 0.98 relative to hSPX Emax

B3: hSPX (C13) (peptide)
peptide: NWTPQAMLYLKGCQ-NH2
EC50, receptor activation (SRE-Luc assay) [1]: 0.63 µM | Emax, receptor activation (SRE-Luc assay) [1]: 0.88 relative to hSPX Emax | EC50, receptor activation (SRE-Luc assay) [2]: 0.37 µM | Emax, receptor activation (SRE-Luc assay) [2]: 0.87 relative to hSPX Emax

B4: LH101 (peptide)
peptide: CWTPQAMLYLKGCQ-NH2
modifications: disulfide 1-13; N-terminus assumed
SMILES: CSCC[C@@H]1NC(=O)[C@H](C)NC(=O)[C@H](CCC(N)=O)NC(=O)[C@@H]2CCCN2C(=O)[C@H]([C@@H](C)O)NC(=O)[C@H](Cc2c[nH]c3ccccc23)NC(=O)[C@@H](N)CSSC[C@@H](C(=O)N[C@@H](CCC(N)=O)C(N)=O)NC(=O)CNC(=O)[C@H](CCCCN)NC(=O)[C@H](CC(C)C)NC(=O)[C@H](Cc2ccc(O)cc2)NC(=O)[C@H](CC(C)C)NC1=O
EC50, receptor activation (SRE-Luc assay) [1]: 1.56 µM | Emax, receptor activation (SRE-Luc assay) [1]: 1.04 relative to hSPX Emax | EC50, receptor activation (SRE-Luc assay) [2]: 1.19 µM | Emax, receptor activation (SRE-Luc assay) [2]: 1.09 relative to hSPX Emax

B5: LH102 (peptide)
peptide: NWTCQAMLYLKGCQ-NH2
modifications: disulfide 4-13; N-terminus assumed
SMILES: CSCC[C@@H]1NC(=O)[C@H](C)NC(=O)[C@H](CCC(N)=O)NC(=O)[C@@H](NC(=O)[C@@H](NC(=O)[C@H](Cc2c[nH]c3ccccc23)NC(=O)[C@@H](N)CC(N)=O)[C@@H](C)O)CSSC[C@@H](C(=O)N[C@@H](CCC(N)=O)C(N)=O)NC(=O)CNC(=O)[C@H](CCCCN)NC(=O)[C@H](CC(C)C)NC(=O)[C@H](Cc2ccc(O)cc2)NC(=O)[C@H](CC(C)C)NC1=O
EC50, receptor activation (SRE-Luc assay) [1]: 1.5 µM | Emax, receptor activation (SRE-Luc assay) [1]: 0.87 relative to hSPX Emax | EC50, receptor activation (SRE-Luc assay) [2]: 1.43 µM | Emax, receptor activation (SRE-Luc assay) [2]: 1.08 relative to hSPX Emax

B6: LH101 (Ac) (peptide)
peptide: Ac-CWTPQAMLYLKGCQ-NH2
modifications: disulfide 1-13
SMILES: CSCC[C@@H]1NC(=O)[C@H](C)NC(=O)[C@H](CCC(N)=O)NC(=O)[C@@H]2CCCN2C(=O)[C@H]([C@@H](C)O)NC(=O)[C@H](Cc2c[nH]c3ccccc23)NC(=O)[C@@H](NC(C)=O)CSSC[C@@H](C(=O)N[C@@H](CCC(N)=O)C(N)=O)NC(=O)CNC(=O)[C@H](CCCCN)NC(=O)[C@H](CC(C)C)NC(=O)[C@H](Cc2ccc(O)cc2)NC(=O)[C@H](CC(C)C)NC1=O
EC50, receptor activation (SRE-Luc assay) [1]: 0.39 µM | Emax, receptor activation (SRE-Luc assay) [1]: 1 relative to hSPX Emax | EC50, receptor activation (SRE-Luc assay) [2]: 0.38 µM | Emax, receptor activation (SRE-Luc assay) [2]: 0.97 relative to hSPX Emax

B7: human galanin (1-16), hGAL (1-16) (peptide)
peptide: GWTLNSAGYLLGPHAV-NH2
EC50, receptor activation (SRE-Luc assay) [1]: > 10 µM | Emax, receptor activation (SRE-Luc assay) [1]: 0.45 relative to hSPX Emax | EC50, receptor activation (SRE-Luc assay) [2]: 0.22 µM | Emax, receptor activation (SRE-Luc assay) [2]: 1.02 relative to hSPX Emax

B8: LH201 (peptide)
peptide: CWTLNSAGYLLGCHAV-NH2
modifications: disulfide 1-13; N-terminus assumed
SMILES: CC(C)C[C@@H]1NC(=O)[C@H](CC(C)C)NC(=O)[C@H](Cc2ccc(O)cc2)NC(=O)CNC(=O)[C@H](C)NC(=O)[C@H](CO)NC(=O)[C@H](CC(N)=O)NC(=O)[C@H](CC(C)C)NC(=O)[C@H]([C@@H](C)O)NC(=O)[C@H](Cc2c[nH]c3ccccc23)NC(=O)[C@@H](N)CSSC[C@@H](C(=O)N[C@@H](Cc2c[nH]cn2)C(=O)N[C@@H](C)C(=O)N[C@H](C(N)=O)C(C)C)NC(=O)CNC1=O
EC50, receptor activation (SRE-Luc assay) [1]: > 10 µM | Emax, receptor activation (SRE-Luc assay) [1]: 0.55 relative to hSPX Emax | EC50, receptor activation (SRE-Luc assay) [3]: > 10 µM | Emax, receptor activation (SRE-Luc assay) [3]: 0.35 relative to hGAL Emax | EC50, receptor activation (SRE-Luc assay) [2]: 0.12 µM | Emax, receptor activation (SRE-Luc assay) [2]: 1 relative to hSPX Emax

B9: human galanin (hGAL) (peptide)
peptide: GWTLNSAGYLLGPHAVGNHRSFSDKNGLTS-NH2
Emax, receptor activation (SRE-Luc assay) [1]: 0.68 relative to hSPX Emax

B10: LH201 (Ac) (peptide)
peptide: Ac-CWTLNSAGYLLGCHAV-NH2
modifications: disulfide 1-13
Emax, receptor activation (SRE-Luc assay) [1]: 0.2 relative to hSPX Emax | Emax, receptor activation (SRE-Luc assay) [3]: 0.22 relative to hGAL Emax | EC50, receptor activation (SRE-Luc assay) [2]: 0.48 µM | Emax, receptor activation (SRE-Luc assay) [2]: 1.16 relative to hSPX Emax
